Data reported in patent US20220242962A1 (APTEVO RESEARCH AND DEVELOPMENT, published 2022).

Columns and labels:
[1] = biological target: T1, Full-length Human OX40 (human, UniProt P43489 29-277); assay: cell-based or functional assay
T1 sequence: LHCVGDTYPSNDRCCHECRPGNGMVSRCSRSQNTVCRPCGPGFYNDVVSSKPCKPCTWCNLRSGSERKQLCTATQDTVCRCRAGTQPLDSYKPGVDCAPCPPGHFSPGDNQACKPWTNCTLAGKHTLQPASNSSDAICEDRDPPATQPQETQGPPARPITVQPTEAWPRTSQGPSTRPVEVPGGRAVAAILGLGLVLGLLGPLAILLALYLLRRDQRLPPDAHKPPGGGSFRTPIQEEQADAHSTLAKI

[2] = biological target: T2, Full-length Human 4-1BB (human, UniProt Q07011 24-255); assay: cell-based or functional assay
[3] = biological target: T1, Full-length Human OX40; assay: flow cytometry, CHO cells expressing human OX40
[4] = biological target: T2, Full-length Human 4-1BB; assay: flow cytometry, Jurkat cells expressing human 4-1BB
Method: (§1) Serial dilutions of ADAPTIR™ constructs were incubated with cells transfected with human or cynomolgus ECD and subsequently labelled with a fluorescently-conjugated goat-α-human Fc secondary antibody. […] (See Example 16.)

[5] = biological target: T3, Human OX40 ECD-AFH (human); assay: SPR (T200), construct captured, monomeric ECD as analyte
T3 construct: ECD'; entry includes the C-terminal tags; also called OXF003; Human OX40 ECD-avi-flag-his
T3 chain: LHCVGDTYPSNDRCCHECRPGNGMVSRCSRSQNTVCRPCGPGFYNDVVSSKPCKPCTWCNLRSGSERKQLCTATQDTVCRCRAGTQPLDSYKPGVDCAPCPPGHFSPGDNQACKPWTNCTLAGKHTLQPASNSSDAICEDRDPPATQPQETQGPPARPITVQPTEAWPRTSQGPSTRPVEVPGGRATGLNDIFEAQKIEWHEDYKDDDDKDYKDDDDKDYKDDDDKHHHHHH
Method: (§2) Mouse anti-human IgG (GE, BR-1008-39) at 25 μg/ml in 10 mM sodium acetate pH 5.0 was immobilized at a density of ˜10,000 response units (RU) onto each flow cell of a CM5 research-grade sensor chip (GE) by standard amine coupling chemistry. Each binding protein at approximately 100 nM in HBS-EP+ with 0.2% BSA buffer was captured in a flow cell with the immobilized anti-human IgG at a flow rate of 10 μL/min for 20 seconds, leaving one flow cell surface unmodified as the reference. Using a single-cycle kinetics mode, five different concentrations of ECD were sequentially injected through each flow cell at 30 μL/min for 300 seconds followed by a 600 second dissociation period. Regeneration was achieved by injection of 3 M MgCl₂ at a flow rate of 30 μL/min for 30 seconds followed by HBS-EP+ with 0.2% BSA buffer stabilization for 1 min.
(§3) Sensorgrams obtained from kinetic SPR measurements were analyzed by the double subtraction method. The signal from the reference flow cell was subtracted from the analyte binding response obtained from flow cells with immobilized or captured ligands. Buffer reference responses were then averaged from multiple injections. The averaged buffer reference responses were then subtracted from analyte binding responses, and the final double-referenced data were analyzed with Biacore T200 Evaluation software (2.0, GE), globally fitting data to derive kinetic parameters. All sensorgrams were fitted using a simple one-to-one binding model.

[6] = biological target: T4, Human 4-1BB ECD-AFH (human); assay: as above
T4 construct: entry includes the tags; also called FOB003; HUMAN CD137 ECD-AVI-FLAG-HIS
Method: as §2, §3

[7] = biological target: T5, Full-length Cyno 4-1BB (cynomolgus monkey, UniProt Q07011 24-255 (human entry)); assay: flow cytometry on Jurkat cells transfected with cynomolgus 4-1BB, goat anti-human Fc secondary antibody, MFI (Mean)
T5 construct: on Jurkat or CHO cells; also called FOB006; cynomolgus 4-1BB
T5 chain: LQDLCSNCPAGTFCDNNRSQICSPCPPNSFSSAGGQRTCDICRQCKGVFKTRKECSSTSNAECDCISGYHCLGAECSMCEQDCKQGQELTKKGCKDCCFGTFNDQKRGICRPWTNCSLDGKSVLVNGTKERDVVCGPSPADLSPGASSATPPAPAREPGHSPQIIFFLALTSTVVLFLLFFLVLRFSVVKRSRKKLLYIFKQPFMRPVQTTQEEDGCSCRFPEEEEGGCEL
Method: as §1

[8] = biological target: T6, Full-length Cyno OX40 (cynomolgus monkey, UniProt P43489 29-277 (human entry)); assay: flow cytometry on CHOK1SV cells transfected with cynomolgus OX40, goat anti-human Fc secondary antibody, MFI (Mean)
T6 construct: on CHO-K1SV cells; also called OXF004; cynomolgus OX40
T6 chain: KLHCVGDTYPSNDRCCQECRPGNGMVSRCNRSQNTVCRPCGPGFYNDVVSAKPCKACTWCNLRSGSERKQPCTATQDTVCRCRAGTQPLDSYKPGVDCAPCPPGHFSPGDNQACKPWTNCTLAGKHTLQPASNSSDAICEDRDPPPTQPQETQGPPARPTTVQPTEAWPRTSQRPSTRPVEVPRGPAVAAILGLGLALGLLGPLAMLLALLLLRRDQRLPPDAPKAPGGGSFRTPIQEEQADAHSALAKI
Method: as §1

T4 sequence (chain, as listed by the source limits assumed): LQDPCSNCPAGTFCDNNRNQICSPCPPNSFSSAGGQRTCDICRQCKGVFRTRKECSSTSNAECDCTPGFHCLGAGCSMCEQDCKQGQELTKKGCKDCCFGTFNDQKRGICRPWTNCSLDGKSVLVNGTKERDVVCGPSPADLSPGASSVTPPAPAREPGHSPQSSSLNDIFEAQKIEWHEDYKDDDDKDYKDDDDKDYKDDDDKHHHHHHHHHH

B1: FXX01079 (bispecific antibody)
chain: SYVLTQPPSVSVAPGQTARITCGGNNIGSKSVNWFQQKPGQAPVLVVYDDSGRPSGIPERFSGSTSGNTATLTISRVEAGDEADYYCQVWDSSSDHVVFGGGTKLTVLGGGGSGGGGSGGGGSGGGGSQVQLVESGGGVVQPGRSLRLSCAASGFTLSYYGMHWVRQAPGKGLEWVAVISHDGSDKYYADSVKGRFTISRDNSKNTLYLQMNSLRAEDTAVYYCSNDQFDPWGQGTLVTVEPKSSDKTHTCPPCPAPPAAAPSVFLFPPKPKDTLMISRTPEVTCVVVDVSHEDPEVKFNWYVDGVEVHNAKTKPREEQYNSTYRVVSVLTVLHQDWLNGKEYKCAVSNKALPAPIEKTISKAKGQPREPQVYTLPPSRDELTKNQVSLTCLVKGFYPSDIAVEWESNGQPENNYKTTPPVLDSDGSFFLYSKLTVDKSRWQQGNVFSCSVMHEALHNHYTQKSLSLSPGGGGSPSEVQLVQSGAEVKKPGASVKVSCKASGYTFTSYWMNWVRQAPGQGLEWMGNIYPSGGSTNYAQKFQGRVTMTVDTSTSTVYMELSSLRSEDTAVYYCASFSDGYYAYAMDYWGQGTLVTVSSGGGGSGGGGSGGGGSGGGGSEIVMTQSPATLSLSPGERATLSCRASQSVSSYLNWYQQKPGQAPRLLIYYASRRHTGIPARFSGSGSGTDFTLTISSLQPEDFAVYYCQQGYNLPYTFGQGTKVEIKR
notes: ADAPTIR scFv-Fc-scFv, anti-OX40 N-terminal, anti-4-1BB C-terminal; also called FX01079
OX40 Reporter Assay EC50 [1]: 0.023 nM | OX40 Reporter Assay Max induction [1]: 470000 | 4-1BB Reporter Assay EC50 [2]: 0.025 nM | 4-1BB Reporter Assay Max induction [2]: 6.26e+06 | EC50 [3]: 1.4 nM | Max MFI [3]: 9820 MFI | EC50 [4]: 0.53 nM | Max MFI [4]: 4120 MFI | Kd [5]: 0.3 nM | koff [5]: 0.00012 s⁻¹ | kon [5]: 450000 M⁻¹ s⁻¹ | Kd [6]: 37 nM | koff [6]: 0.0038 s⁻¹ | kon [6]: 100000 M⁻¹ s⁻¹ | binding result [7]: binds | EC50 (read off the curve) [8]: ~2 nM
